Reference: patent US20260258092A1
“And” between values parts separate entries of the source, which are not always exact repeats. Equal values may be shown once.

Key:
Trastuzumab [1] = assay: frontal analysis on a membrane disc, load at 10 mL/min, run 4 (no blank run before)
[2] = molecular target: dAb, a domain antibody comprising the variable light chain; assay: frontal analysis on a membrane disc, run 1
Trastuzumab [3] = assay: frontal analysis on a membrane disc, load at 10 mL/min, run 1
Trastuzumab [4] = assay: frontal analysis on a membrane disc, load at 10 mL/min, average of runs 1-4
Trastuzumab [5] = assay: frontal analysis on a membrane disc, blank run between runs, average
Trastuzumab [6] = assay: frontal analysis on a membrane disc, load at 10 mL/min, run 3
Trastuzumab [7] = assay: frontal analysis on a membrane disc, load at 10 mL/min, run 2 (no blank run before)
[8] = molecular target: dAb, a domain antibody comprising the variable light chain; assay: frontal analysis on a membrane disc, re-run after CIP with 0.1 M NaOH, average; conditions: test 1, without preceding CIP wash
Trastuzumab [9] = assay: frontal analysis on a membrane disc, blank run between runs, run 1
Trastuzumab [10] = assay: frontal analysis on a membrane disc, blank run between runs, run 2
[11] = molecular target: dAb, a domain antibody comprising the variable light chain; assay: frontal analysis on a membrane disc, run 2, average of Test 1 and Test 2
[12] = molecular target: dAb, a domain antibody comprising the variable light chain; assay: frontal analysis on a membrane disc, run 2
[13] = molecular target: dAb, a domain antibody comprising the variable light chain; assay: frontal analysis on a membrane disc, run 1, average of Test 1 and Test 2

Qb10% (dynamic binding capacity at 10% breakthrough) (Trastuzumab [1]): 10.8 mg/mL and 16.8 mg/mL
Qb10% (dynamic binding capacity at 10% breakthrough) [2]: 12.8 mg/mL and 13 mg/mL
Qb10% (dynamic binding capacity at 10% breakthrough) (Trastuzumab [3]): 17.3 mg/mL and 22 mg/mL
Qb10% (average of runs) (Trastuzumab [4]): 19.6 mg/mL and 14.1 mg/mL
Qb10% (average of runs) (Trastuzumab [5]): 15.4 mg/mL and 21.4 mg/mL
Qb10% (dynamic binding capacity at 10% breakthrough) (Trastuzumab [6]): 15.9 mg/mL and 21.8 mg/mL
Qb10% (dynamic binding capacity at 10% breakthrough) (Trastuzumab [7]): 12.3 mg/mL and 17.8 mg/mL
Qb10% (average of runs) [8]: 10.2 mg/mL
Qb10% (dynamic binding capacity at 10% breakthrough) (Trastuzumab [9]): 15.4 mg/mL and 21.4 mg/mL
Qb10% (dynamic binding capacity at 10% breakthrough) (Trastuzumab [10]): 15.5 mg/mL and 21.4 mg/mL
Average of Qb10% [11]: 9.98 mg/mL
Qb10% (dynamic binding capacity at 10% breakthrough) [12]: 9.41 mg/mL and 10.5 mg/mL
Average of Qb10% [13]: 12.9 mg/mL
Substance: kappa light chain-binding ligand (multimer of alkali-stabilized Finegoldia magna Protein L domains) covalently coupled to a convection-based fibrous support (prototype separation matrix) (designed binder)
